Laboratory results: patent US8349320 (dated 2013)

B1: mouse HVEM-Fc (Fc fusion)
chain: QPSCRQEEFLVGDECCPMCNPGYHVKQVCSEHTGTVCAPCPPQTYTAHANGLSKCLPCGVCDPDMGLLTWQECSSWKDTVCRCIPGYFCENQDGSHCSTCLQHTTCPPGQRVEKRGTHDQDTVCADCLTGTFSLGGTQEECLPWTNCSAFQQEVRRGTNSTDTTCSSQ
B2: human HVEM-Fc (Fc fusion)
chain: LPSCKEDEYPVGSECCPKCSPGYRVKEACGELTGTVCEPCPPGTYIAHLNGLSKCLQCQMCDPAMGLRASRNCSRTENAVCGCSPGHFCIVQDGDHCAACRAYATSSPGQRVQKGGTESQDTLCQNCPPGTFSPNGTLEECQHQTKCSWLVTKAGAGTSSSHWV
modifications: in the FIG. 3H assay biotinylated with NHS-PEO4-Biotin, 2 biotin molecules per HVEM-Fc (sites not given)

Experiments:
[1] = biological target: T1, mouse BTLA expressed on cells (mouse, UniProt Q7TSA3 30-306); assay: FACS binding to transfected 293T cells; top panel
T1 chain: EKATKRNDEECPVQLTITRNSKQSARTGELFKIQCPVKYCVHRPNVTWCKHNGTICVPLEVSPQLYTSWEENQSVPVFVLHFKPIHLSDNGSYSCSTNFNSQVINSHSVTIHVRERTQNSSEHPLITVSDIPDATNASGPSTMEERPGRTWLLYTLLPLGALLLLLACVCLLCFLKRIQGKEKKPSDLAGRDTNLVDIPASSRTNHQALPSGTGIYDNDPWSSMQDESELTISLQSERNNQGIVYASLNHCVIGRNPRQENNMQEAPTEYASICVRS

[2] = biological target: T2, human BTLA expressed on cells (human, UniProt Q7Z6A9 31-289); assay: FACS binding to transfected 293T cells; top panel
T2 sequence (Q7Z6A9 31-289): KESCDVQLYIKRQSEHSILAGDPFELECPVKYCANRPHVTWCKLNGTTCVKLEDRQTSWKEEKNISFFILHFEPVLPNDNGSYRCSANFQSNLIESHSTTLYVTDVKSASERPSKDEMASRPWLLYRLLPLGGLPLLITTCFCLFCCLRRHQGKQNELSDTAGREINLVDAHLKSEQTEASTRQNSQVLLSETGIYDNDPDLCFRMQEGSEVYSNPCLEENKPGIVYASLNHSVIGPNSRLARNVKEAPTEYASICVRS

[3] = biological target: T2, human BTLA expressed on cells; assay: FACS binding to transfected 293T cells; bottom panel; axis printed mHVEM:Fc, presumably hHVEM:Fc

Binder | EC50 [1] [µg/mL] | EC50 [2] [µg/mL] | EC50 [3] [µg/mL]
B1 | 0.8 | 0.5 | 
B2 |  |  | > 25
